In US20250000946A1 (WUXI BIOLOGICS IRELAND, published 2025):

T1: Human IL-2Rβ/γ (intermediate affinity IL-2 receptor) (human, UniProt P14784 27-551; P31785 23-369)
T1 construct: whole, on cells; also called IL-2Rβ/γc; IL-2Rβ (CD122) and γ (CD132)
T1 sequence (looked up) 1: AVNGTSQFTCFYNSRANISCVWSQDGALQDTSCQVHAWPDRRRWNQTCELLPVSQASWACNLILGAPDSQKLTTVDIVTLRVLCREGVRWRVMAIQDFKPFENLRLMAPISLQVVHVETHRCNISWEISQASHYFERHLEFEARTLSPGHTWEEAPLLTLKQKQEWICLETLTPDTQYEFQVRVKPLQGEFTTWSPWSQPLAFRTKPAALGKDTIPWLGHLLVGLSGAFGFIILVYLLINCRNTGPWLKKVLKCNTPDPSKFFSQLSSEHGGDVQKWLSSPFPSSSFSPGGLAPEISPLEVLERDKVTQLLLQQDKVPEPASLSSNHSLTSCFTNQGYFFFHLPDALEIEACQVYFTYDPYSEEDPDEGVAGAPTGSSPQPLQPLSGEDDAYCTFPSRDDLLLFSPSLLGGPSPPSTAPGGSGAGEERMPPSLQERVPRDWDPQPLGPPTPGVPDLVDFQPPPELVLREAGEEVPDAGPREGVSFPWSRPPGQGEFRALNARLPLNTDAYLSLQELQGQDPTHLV
T1 sequence (looked up) 2: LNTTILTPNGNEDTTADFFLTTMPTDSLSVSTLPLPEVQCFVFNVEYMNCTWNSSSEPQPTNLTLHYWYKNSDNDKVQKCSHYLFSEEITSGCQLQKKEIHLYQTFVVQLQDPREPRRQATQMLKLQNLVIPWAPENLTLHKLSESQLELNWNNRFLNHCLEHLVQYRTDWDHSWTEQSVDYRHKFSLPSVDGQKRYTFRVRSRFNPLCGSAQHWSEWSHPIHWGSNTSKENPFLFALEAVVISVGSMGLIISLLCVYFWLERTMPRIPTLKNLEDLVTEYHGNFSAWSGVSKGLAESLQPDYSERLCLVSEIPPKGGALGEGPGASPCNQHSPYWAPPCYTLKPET

T2: Human IL-2Rα/β/γ complex (high affinity IL-2 receptor) (human, UniProt P01589 22-272; P14784 27-551; P31785 23-369)
T2 construct: whole, on cells
T2 sequence (looked up) 1: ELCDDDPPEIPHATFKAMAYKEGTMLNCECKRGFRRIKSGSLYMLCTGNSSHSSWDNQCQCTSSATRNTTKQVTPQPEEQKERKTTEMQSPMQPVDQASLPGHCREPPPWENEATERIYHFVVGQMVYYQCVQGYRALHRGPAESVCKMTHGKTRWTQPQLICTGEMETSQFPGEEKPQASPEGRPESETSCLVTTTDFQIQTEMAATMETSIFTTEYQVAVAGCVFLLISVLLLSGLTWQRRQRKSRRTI
T2 sequence (looked up) 2: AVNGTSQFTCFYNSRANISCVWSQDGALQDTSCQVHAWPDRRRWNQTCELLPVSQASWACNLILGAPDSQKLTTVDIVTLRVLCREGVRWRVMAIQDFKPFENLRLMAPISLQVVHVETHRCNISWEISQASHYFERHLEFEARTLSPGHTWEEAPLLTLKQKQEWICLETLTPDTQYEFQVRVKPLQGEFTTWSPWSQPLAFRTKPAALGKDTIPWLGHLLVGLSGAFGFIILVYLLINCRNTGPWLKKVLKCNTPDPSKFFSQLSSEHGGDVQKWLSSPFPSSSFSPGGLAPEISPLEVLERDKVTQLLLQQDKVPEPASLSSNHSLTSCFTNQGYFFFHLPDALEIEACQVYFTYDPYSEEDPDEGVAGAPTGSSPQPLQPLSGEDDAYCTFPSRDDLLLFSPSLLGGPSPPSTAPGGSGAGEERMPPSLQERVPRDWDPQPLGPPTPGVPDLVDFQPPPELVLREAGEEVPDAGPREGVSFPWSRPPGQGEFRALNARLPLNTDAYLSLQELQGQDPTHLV
T2 sequence (looked up) 3: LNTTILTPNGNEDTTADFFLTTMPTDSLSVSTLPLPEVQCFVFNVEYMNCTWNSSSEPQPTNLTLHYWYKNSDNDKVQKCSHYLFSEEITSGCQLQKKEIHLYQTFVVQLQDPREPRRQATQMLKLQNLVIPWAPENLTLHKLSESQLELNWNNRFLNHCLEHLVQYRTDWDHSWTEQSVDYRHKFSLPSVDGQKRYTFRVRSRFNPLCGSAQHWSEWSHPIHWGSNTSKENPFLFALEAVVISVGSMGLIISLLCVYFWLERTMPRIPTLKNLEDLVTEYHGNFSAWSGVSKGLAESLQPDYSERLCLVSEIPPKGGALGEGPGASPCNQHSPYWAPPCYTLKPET


Experiments:
[1] = target: T1, Human IL-2Rβ/γ (intermediate affinity …); test: FACS, HH cells; EC50 fold vs T2U0.E44-1
Summary of the method: (§1)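 Cells: HH (IL-2Rβ/γ), NK92 and MJ20 (IL-2Rα/β/γ). 30 min 4° C. with IL-2/Fc at indicated concentrations; PE-anti-human Fc 30 min 4° C.; FACS MFI.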

[2] = target: T2, Human IL-2Rα/β/γ complex (high affinity …); test: FACS, MJ20 cells; EC50 fold vs T2U0.E44-1
Experimental: (§2) Human cutaneous T cell lymphoma HH cells, malignant non-Hodgkin's lymphoma NK92 cells and cutaneous T cell lymphoma MJ20 cells were used for binding assay. They both constitutively express IL-2Rβ (CD122) and […] (CD132), and NK92 and MJ20 also expresses IL-2Rα (CD25). HH, NK92 and MJ20 cells were cultured following ATCC guidance, then transferred to a 96-plate for binding analysis. Cells were incubated with IL-2/Fc fusion proteins at the indicated concentrations for 30 min at 4° C. to avoid internalization. Binding was detected by 2nd antibody of PE-anti-human Fc at 4° C. for another 30 min. The median fluorescence intensity (MFI) on HH and NK92 cells was measured using FACS.

[3] = target: T2, Human IL-2Rα/β/γ complex (high affinity …); test: FACS, MJ20 cells
Experimental: as §2

[4] = target: T2, Human IL-2Rα/β/γ complex (high affinity …); test: cell-based or functional assay
[5] = target: T1, Human IL-2Rβ/γ (intermediate affinity …); test: cell-based or functional assay
[6] = target: T1, Human IL-2Rβ/γ (intermediate affinity …); test: FACS, HH cells
Summary of the method: as §1

Row | Affinity reduction [1] | Affinity reduction [2] | EC50 [3] | Potency in human Treg EC50 [4] | Potency reduction (Treg) [4] | Potency in human CD8+ T EC50 [5] | Potency reduction (CD8+ T) [5] | EC50 [6] | Binder
1 | 13.7 fold | 1.5 fold | 60.9 nM | 0.21 nM | 104 fold | 180 nM | 17.7 fold | 720 nM | W3XX115-T2U0.E44-34.uIgG4V322 (Fc fusion, IL-2 del STLT and S127A; E44 format, IgG4 FALA) APTSSSTKKTQLQLEHLLLDLQMILNGINNYKNPKLTRMLTFKFYMPKKATELKHLQCLEEELKPLEEVLNLAQSKNFHLRPRDLISNINVIVLELKGSETTFMCEYADETATIVEFLNRWITFCQAIIESKYGPPCPPCPAPEAAGGPSVFLFPPKPKDTLMISRTPEVTCVVVDVSQEDPEVQFNWYVDGVEVHNAKTKPREEQFNSTYRVVSVLTVLHQDWLNGKEYKCKVSNKGLPSSIEKTISKAKGQPREPQVYTLPPCQEEMTKNQVSLWCLVKGFYPSDIAVEWESNGQPENNYKTTPPVLDSDGSFFLYSRLTVDKSRWQEGNVFSCSVMHEALHNHYTQKSLSLSLG heavy: EIQLQQSGPELVKPGASVKVSCKASGYSFTDYNMYWVKQSHGESLEWIGYIDPYNGGTRYNQKFKGKATLTVDKSSSTAFMHLNSLTSEDSAVYYCARNGHWDGAWFAYWGQGTLVTVSAASTKGPSVFPLAPCSRSTSESTAALGCLVKDYFPEPVTVSWNSGALTSGVHTFPAVLQSSGLYSLSSVVTVPSSSLGTKTYTCNVDHKPSNTKVDKRVESKYGPPCPPCPAPEAAGGPSVFLFPPKPKDTLMISRTPEVTCVVVDVSQEDPEVQFNWYVDGVEVHNAKTKPREEQFNSTYRVVSVLTVLHQDWLNGKEYKCKVSNKGLPSSIEKTISKAKGQPREPQVCTLPPSQEEMTKNQVSLSCAVKGFYPSDIAVEWESNGQPENNYKTTPPVLDSDGSFFLVSRLTVDKSRWQEGNVFSCSVMHEALHNHYTQKSLSLSLG light: DIQMNQSPSSLSASLGDTITITCHASQNINVWLSWYQQKPGNIPKLLIYKASNLHTGVPSRFSGSRSGTGFTLTISSLQPEDIATYYCHQGQSYPFTFGSGTKLEIKRTVAAPSVFIFPPSDEQLKSGTASVVCLLNNFYPREAKVQWKVDNALQSGNSQESVTEQDSKDSTYSLSSTLTLSKADYEKHKVYACEVTHQGLSSPVTKSFNRGEC
2 | 400000 fold | 4.8 fold | 201 nM | 5 nM | 2540 fold | 268 nM | 26.3 fold | – | W3XX115-T2U0.E44-38.uIgG4V322 (Fc fusion, IL-2 del STLT and C125A; E44 format, IgG4 FALA) APTSSSTKKTQLQLEHLLLDLQMILNGINNYKNPKLTRMLTFKFYMPKKATELKHLQCLEEELKPLEEVLNLAQSKNFHLRPRDLISNINVIVLELKGSETTFMCEYADETATIVEFLNRWITFAQSIIESKYGPPCPPCPAPEAAGGPSVFLFPPKPKDTLMISRTPEVTCVVVDVSQEDPEVQFNWYVDGVEVHNAKTKPREEQFNSTYRVVSVLTVLHQDWLNGKEYKCKVSNKGLPSSIEKTISKAKGQPREPQVYTLPPCQEEMTKNQVSLWCLVKGFYPSDIAVEWESNGQPENNYKTTPPVLDSDGSFFLYSRLTVDKSRWQEGNVFSCSVMHEALHNHYTQKSLSLSLG heavy: EIQLQQSGPELVKPGASVKVSCKASGYSFTDYNMYWVKQSHGESLEWIGYIDPYNGGTRYNQKFKGKATLTVDKSSSTAFMHLNSLTSEDSAVYYCARNGHWDGAWFAYWGQGTLVTVSAASTKGPSVFPLAPCSRSTSESTAALGCLVKDYFPEPVTVSWNSGALTSGVHTFPAVLQSSGLYSLSSVVTVPSSSLGTKTYTCNVDHKPSNTKVDKRVESKYGPPCPPCPAPEAAGGPSVFLFPPKPKDTLMISRTPEVTCVVVDVSQEDPEVQFNWYVDGVEVHNAKTKPREEQFNSTYRVVSVLTVLHQDWLNGKEYKCKVSNKGLPSSIEKTISKAKGQPREPQVCTLPPSQEEMTKNQVSLSCAVKGFYPSDIAVEWESNGQPENNYKTTPPVLDSDGSFFLVSRLTVDKSRWQEGNVFSCSVMHEALHNHYTQKSLSLSLG light: DIQMNQSPSSLSASLGDTITITCHASQNINVWLSWYQQKPGNIPKLLIYKASNLHTGVPSRFSGSRSGTGFTLTISSLQPEDIATYYCHQGQSYPFTFGSGTKLEIKRTVAAPSVFIFPPSDEQLKSGTASVVCLLNNFYPREAKVQWKVDNALQSGNSQESVTEQDSKDSTYSLSSTLTLSKADYEKHKVYACEVTHQGLSSPVTKSFNRGEC
3 | 10.9 fold | 2.2 fold | 92.8 nM | 0.073 nM | 37.1 fold | 10.7 nM | 1.1 fold | 576 nM | W3XX115-T2U0.E44-35.uIgG4V322 (Fc fusion, IL-2 del STLT and S127T; E44 format, IgG4 FALA) APTSSSTKKTQLQLEHLLLDLQMILNGINNYKNPKLTRMLTFKFYMPKKATELKHLQCLEEELKPLEEVLNLAQSKNFHLRPRDLISNINVIVLELKGSETTFMCEYADETATIVEFLNRWITFCQTIIESKYGPPCPPCPAPEAAGGPSVFLFPPKPKDTLMISRTPEVTCVVVDVSQEDPEVQFNWYVDGVEVHNAKTKPREEQFNSTYRVVSVLTVLHQDWLNGKEYKCKVSNKGLPSSIEKTISKAKGQPREPQVYTLPPCQEEMTKNQVSLWCLVKGFYPSDIAVEWESNGQPENNYKTTPPVLDSDGSFFLYSRLTVDKSRWQEGNVFSCSVMHEALHNHYTQKSLSLSLG heavy: EIQLQQSGPELVKPGASVKVSCKASGYSFTDYNMYWVKQSHGESLEWIGYIDPYNGGTRYNQKFKGKATLTVDKSSSTAFMHLNSLTSEDSAVYYCARNGHWDGAWFAYWGQGTLVTVSAASTKGPSVFPLAPCSRSTSESTAALGCLVKDYFPEPVTVSWNSGALTSGVHTFPAVLQSSGLYSLSSVVTVPSSSLGTKTYTCNVDHKPSNTKVDKRVESKYGPPCPPCPAPEAAGGPSVFLFPPKPKDTLMISRTPEVTCVVVDVSQEDPEVQFNWYVDGVEVHNAKTKPREEQFNSTYRVVSVLTVLHQDWLNGKEYKCKVSNKGLPSSIEKTISKAKGQPREPQVCTLPPSQEEMTKNQVSLSCAVKGFYPSDIAVEWESNGQPENNYKTTPPVLDSDGSFFLVSRLTVDKSRWQEGNVFSCSVMHEALHNHYTQKSLSLSLG light: DIQMNQSPSSLSASLGDTITITCHASQNINVWLSWYQQKPGNIPKLLIYKASNLHTGVPSRFSGSRSGTGFTLTISSLQPEDIATYYCHQGQSYPFTFGSGTKLEIKRTVAAPSVFIFPPSDEQLKSGTASVVCLLNNFYPREAKVQWKVDNALQSGNSQESVTEQDSKDSTYSLSSTLTLSKADYEKHKVYACEVTHQGLSSPVTKSFNRGEC
